Assay results published in the nanobody polyreactivity screen of Harvey et al. (2022).

Assay: yeast display, Sf9 membrane polyspecificity reagent, FACS + sequencing; frameworks hold sequencing errors
How it was run: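 In a synthetic yeast display library (Saccharomyces cerevisiae BJ5465), nanobody expression was induced with galactose for 36–48 hours. FACS gates were set low and high (top ~1%) using anti-HA fluorescence for expression and streptavidin fluorescence for binding of the Sf9 membrane reagent. Each polyreactivity label is drawn from the gate of origin.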

Sequence: QVQLVESGGGLVQAGGSLRLSCAASGRIFAYYAMEWYRQAPGKERELVAAITRSGARTYYADSVKGRFTISRDNAKNSVYLQMNSLKPEDTAVYYFAAEGVRIGTRYDYWGQGTQVTVSS
- polyreactivity (PSR sort gate): high polyreactivity

Sequence: QVQLVESGGGLVQAGGSLRLSCAASGRIFAYYAMGWYRQAPGKERELVAAINTSGAPTNYADSVKGRFTISRDNAKNTVYLQMISLKPEDTAVYYCAARRARYHVEYYYWGQGTQVTVSS
- polyreactivity (PSR sort gate): high polyreactivity

Sequence: QVQLVESGGGLVQAGGSLRLSCAASGRIFAYYAMGWYRQAPGKERELVAAISFIGGSTYYADSVKGRFTISRDNAKNTVYLQMNSLKPEDTAVDYCTAGYVRRYSPSSSWRYDYWGQGTQVTVSS
- polyreactivity (PSR sort gate): high polyreactivity

Sequence: QVQLVESGGGLVQAGGSLRLSCAASGRIFAYYAMGWYRQAPGKERELVAAISRGGGSTSYADSVKGRFTISRDNAKNTFYLQMNSLKPEDTAVYYCAKDRGYRYLGDYWGQGTQVTVSS
- polyreactivity (PSR sort gate): low polyreactivity

Sequence: QVQLVESGGGLVQAGGSLRLSCAASGRIFAYYAMGWYRQAPGKERELVAAISSGGSTKYADSVKGRFTISRDNAKNTVYLQMNSLKPEDTAVYYCAAKYGYRKYRGFQNGGDYWGQGTQVNVSS
- polyreactivity (PSR sort gate): high polyreactivity

Sequence: QVQLVESGGGLVQAGGSLRLSCAASGRIFAYYAMGWYRQAPGKERELVAAISSGGTTNYADSVKGRFTISRDNAKITVYLQMNSLIPEDTAVYYCNADGWRRSRQYYYWGQGTQVTVSS
- polyreactivity (PSR sort gate): low polyreactivity

Sequence: QVQLVESGGGLVQAGGSLRLSCAASGRIFAYYAMGWYRQAPGKERELVAAITSSGGSTYYADSVKGRFTISRDNAKNTVYLQMNSLKPEDTAVYFCAKVGARSERFDYRGQGTQVTVSS
- polyreactivity (PSR sort gate): high polyreactivity

Sequence: QVQLVESGGGLVQAGGSLRLSCAASGRIFAYYAMGWYRQAPGKERELVAAITTNGGGTYYADSVKGRFTISRDNETNTVYLQMNSLKAEDTAVYYCAKRSWIEYDYWGQGTQVTVSS
- polyreactivity (PSR sort gate): low polyreactivity

Sequence: QVQLVESGGGLVQAGGSLRLSCAASGRIFAYYAMGWYRQAPGKERELVAGINSGGGSTYYADSVKGRFTISRDNAKNTVYLQMNSLKPEDNAVSYCATYYYRRSNRSSTSYDYWGQGTQVTVSS
- polyreactivity (PSR sort gate): high polyreactivity

Sequence: QVQLVESGGGLVQAGGSLRLSCAASGRIFAYYAMGWYRQAPGKERELVATITRGGNTNYADSVKGRFTISRDNAKNTVYLQMNSLKPEDTAVYYCNRRYSRWGIYDYWGQGTQVTVSS
- polyreactivity (PSR sort gate): high polyreactivity

Sequence: QVQLVESGGGLVQAGGSLRLSCAASGRIFAYYAMGWYRQAPGKEREVVAAISRSGVSTYYADSVKGRFTISRDNAKNTVYLQMNSLKPEDTAVYYCAARWRYGFTSGDYWGQGTQVNVSS
- polyreactivity (PSR sort gate): low polyreactivity

Sequence: QVQLVESGGGLVQAGGSLRLSCAASGRIFAYYAMGWYRQAPGQERELVATITGGGDRTYYADSVKGRFTISRDNAKNTLYLQMNSLKPEDTAVYYCNARVWYYSPYYYWGQGTQVTVSS
- polyreactivity (PSR sort gate): low polyreactivity

Sequence: QVQLVESGGGLVQAGGSLRLSCAASGRIFAYYTMGWYRQAPGKERELVAAISGSSGRTYYADSVKGRFTISRDNAKNTVYLQMNSLKPEDTAVYYCAARGFSFWRYYYWGQGTQVTVSS
- polyreactivity (PSR sort gate): high polyreactivity

Sequence: QVQLVESGGGLVQAGGSLRLSCAASGRIFDDNAKGCYRQPPGKERELLASLTVSTGSTYYADSVKGRFTISRDTAKNTVYLQMNSLKPEDTAVYYCAAPYITPYGTYVFSSDYWGQGTQVTVSS
- polyreactivity (PSR sort gate): low polyreactivity

Sequence: QVQLVESGGGLVQAGGSLRLSCAASGRIFDDYAMGWYRQAPGKEREFVAAISRSGASTYYADSVKGRFTISRDNAKNTVYLQMNSLKPEDTAVYYCAARAGANYRMDYWGQGTQVTVSS
- polyreactivity (PSR sort gate): high polyreactivity

Sequence: QVQLVESGGGLVQAGGSLRLSCAASGRIFDDYGMGWYRQAQGKESELVAGISFIAGSTYYADSVKGRFTISRDNAKNTVYLQMNSLKPEDTAVYYCAVELWYEYYYWGQGTQVTVSS
- polyreactivity (PSR sort gate): high polyreactivity

Sequence: QVQLVESGGGLVQAGGSLRLSCAASGRIFDGNAMGWDRPAPGKERELVADISVTGGSTYYADSVKGRFTISRDNAKNTVYLQMNSLKPEDTAVYYCNAYPFSRSVQLRDYWGQGTQVTVSS
- polyreactivity (PSR sort gate): low polyreactivity

Sequence: QVQLVESGGGLVQAGGSLRLSCAASGRIFDGNAMGWYRQAPGKERELVATITRGGRTNYADSVKGRFTISRDNAKNTVYLQMNSLKPEDTAVYYCAAEYTYYTYNLNYWGQGTQVTVSS
- polyreactivity (PSR sort gate): low polyreactivity

Sequence: QVQLVESGGGLVQAGGSLRLSCAASGRIFDGNTMGWYRQAPGKERELVAAITYSGGRTSYADSVKGRFTISRDNAKNTVYLQMNSLKPEDTAVYYCNARVVTGSWYEGYYWGQGTQVTVSS
- polyreactivity (PSR sort gate): low polyreactivity

Sequence: QVQLVESGGGLVQAGGSLRLSCAASGRIFDGYAMGWYRQAPGTERELVAAITDSGGSTYYADSVKGRFTISRDNAKNTVYLQMNSLKPEDTAVYYCAAEEIDYTDVTSGYEYWGQGTQVTVSS
- polyreactivity (PSR sort gate): high polyreactivity

Sequence: QVQLVESGGGLVQAGGSLRLSCAASGRIFDHYAMGWYRQAPGKERELVAAITRSGGITYYADSVKGRFTISRDNAKNTVYLQMNSLKPEDTAVYYCAALSYRYTDKFDYWGQGTQVTVSS
- polyreactivity (PSR sort gate): low polyreactivity

Sequence: QVQLVESGGGLVQAGGSLRLSCAASGRIFDINAMGWYRQAPGKEWELVAAISRGGSTYYADSVKGRFTISLDNAKNTVYLNMNSLKPEDTAVYYCNIYRYRGSTVFDGYDYWGHGTQVTVSS
- polyreactivity (PSR sort gate): high polyreactivity

Sequence: QVQLVESGGGLVQAGGSLRLSCAASGRIFDIYAMGWYRQAPGKERELVAAITTRGGSTYYADSVKGRFTISRDNAKNNVYLQMNSLKPEDTAVYYCAAAYSEDYRVIFYYWGQGTQVTVSS
- polyreactivity (PSR sort gate): low polyreactivity

Sequence: QVQLVESGGGLVQAGGSLRLSCAASGRIFDIYAMGWYRQAPGKERELVAGITSVGSTNYADSVKGRFTISRDNAKNTVYLQMNSLKPEDTAVYYCAADTSVHSEVDYWGQGTQVTVSS
- polyreactivity (PSR sort gate): low polyreactivity

Sequence: QVQLVESGGGLVQAGGSLRLSCAASGRIFDIYAMGWYRQAPGKERELVAGITSVGSTNYADSVKGRFTISRDNEKNTVYLQMNSLKPEDTAVYYCAAKAYFSTSPYHREHDSWGQGTQVTVSS
- polyreactivity (PSR sort gate): low polyreactivity

Sequence: QVQLVESGGGLVQAGGSLRLSCAASGRIFDIYGMGWYRQAPGKERELLAAITWRGGSTYYADSVKGRFTISRDNAKNTVYLQMKSLNPEDTAVYYCNARKRGARFILGYDYWGQGTQVTVSS
- polyreactivity (PSR sort gate): low polyreactivity

Sequence: QVQLVESGGGLVQAGGSLRLSCAASGRIFDIYTMGWYRQAPGKERELVASITKRGGSTYYADSVKGRFTISRDNAKNTVYLQMKSLKPEDTAVYFCNVAGKQKPYYVTTRLDYWGQGTQVTVSS
- polyreactivity (PSR sort gate): high polyreactivity

Sequence: QVQLVESGGGLVQAGGSLRLSCAASGRIFDLNAMGWYRQAPGKERELVAVISWSGGIKYYADSVKGRFTISRDNAKNTVYLQMNSLKPEDTAVYYCNADTVFDPYYEFDYWGLGTQVTVSS
- polyreactivity (PSR sort gate): low polyreactivity

Sequence: QVQLVESGGGLVQAGGSLRLSCAASGRIFDLYAMGWYRQAPGKERELVAAITWRGGSTYYADSVKGRFTISRDNAKNTVYLQMNSLKPEDTAVYYCAARSYYISPWRFDYWGQGTQVTVSS
- polyreactivity (PSR sort gate): high polyreactivity

Sequence: QVQLVESGGGLVQAGGSLRLSCAASGRIFDPYAMGWYRQAPGKERELVASNSWSGGRTYYADSVKGRFTISRDNAKNTVYLQMNSLKPEDTAVYYCAKVRAYTRLGLTVSMDYWGQGTQVTVSS
- polyreactivity (PSR sort gate): high polyreactivity

Sequence: QVQLVESGGGLVQAGGSLRLSCAASGRIFDQNAMGWYRQAPGKERELVAAISSSGGRTYYADSVKGRFTISRDNAKNTVYLQMNSLKPEDTAVYYCAARYRFQRGGYYYWGQGTQVTVSS
- polyreactivity (PSR sort gate): high polyreactivity

Sequence: QVQLVESGGGLVQAGGSLRLSCAASGRIFDRNAMGWYRPSPGTERELLAAIDDSGGDTSYADSVKGRFTISRDNAKNTVYLQMNSLKPEDTAVYYCNAGYADFVTYPRYYYWGQGTQVTVSS
- polyreactivity (PSR sort gate): low polyreactivity

Sequence: QVQLVESGGGLVQAGGSLRLSCAASGRIFDRNAMGWYRQAPGKERELVAAIDDSGGDTSYADSVKGRFTISRDTAKNTVYLQMNSLKPEDTAVYYCAAKRQYYQTGSQRSYPYDYWGQGTQVTVSS
- polyreactivity (PSR sort gate): low polyreactivity

Sequence: QVQLVESGGGLVQAGGSLRLSCAASGRIFDRNAMGWYRQAPGKERELVAAIRRGGSTNYADSVKGRFTISRDNAKNTVYLQMNSLKPEDTAVYYCNTVYSEYYIAYDYWGQGTQVTVSS
- polyreactivity (PSR sort gate): high polyreactivity

Sequence: QVQLVESGGGLVQAGGSLRLSCAASGRIFDRNAMGWYRQAPGKERELVARIDPGDDTNYADSVKGRFTISRDNAKHTVYLQMHSLKPEDTAVYYCATDPDYVLFRTAYYEYDYWGQGTQVTVSS
- polyreactivity (PSR sort gate): low polyreactivity

Sequence: QVQLVESGGGLVQAGGSLRLSCAASGRIFDRYAMGWYRPAPGKERELVAASTGSGGRTYYADSVKGRFTISRDNAKNTVYLQMNSLKPEDTAVYYCARAFGQRRYYYWGQGTQVTVSS
- polyreactivity (PSR sort gate): high polyreactivity

Sequence: QVQLVESGGGLVQAGGSLRLSCAASGRIFDRYVMGWYRQAPGKERELVAAISSGGSTYYADSVKGRFTISRDNAKNTVYLQMNSLKPEDTAVYYCAADRRSKYDYWGQGTQVTVSS
- polyreactivity (PSR sort gate): low polyreactivity

Sequence: QVQLVESGGGLVQAGGSLRLSCAASGRIFDSYAMGWYRQAPGKERELVAAISFGGDTYYADSVKGRFTISRDNAKNTVYLQMNSLKPEDTAVYYCAKDNPAALFDSWGQGTQVTVSS
- polyreactivity (PSR sort gate): low polyreactivity

Sequence: QVQLVESGGGLVQAGGSLRLSCAASGRIFDTYVMRWYRQAPGKERELVAAISGSGGSTYYADSVKGRFTISRDTAKNTVYLQMNSLKPEDTAVYYCAAVVLGRLLGFRGDYNYWGQGPQVTVSS
- polyreactivity (PSR sort gate): high polyreactivity

Sequence: QVQLVESGGGLVQAGGSLRLSCAASGRIFDVYAMGWYRQAPGKERELVAAITWSGTSTYYADSVKGRFTISRDNAKNTVYLQMNSLKPEDTAVYYCNALSYGRYLNYRGGMDYWGQGTQVTVSS
- polyreactivity (PSR sort gate): high polyreactivity

Sequence: QVQLVESGGGLVQAGGSLRLSCAASGRIFDVYAMGWYRQAPGKERELVATISSSGGATYYADSVKGRFTISRDNAKNTVYLQMNSLKPEDTAVYYCATTYRPTFRRHYNYWGQGTQVTVSS
- polyreactivity (PSR sort gate): low polyreactivity

Sequence: QVQLVESGGGLVQAGGSLRLSCAASGRIFDVYAMGWYRQSPGKERELVAAISWSGSSTYYADSVKGRFTISRDTAKNTVYFQMNSLKPEDTAVYYCAADYPKTYTSKFNYWGQGTQVTVSS
- polyreactivity (PSR sort gate): high polyreactivity

Sequence: QVQLVESGGGLVQAGGSLRLSCAASGRIFDWYAMGWYRQAPGKERELVATISWSGGSTYYADSVKGRFTISRDNAKNTVYLQMNSLKPEDTAVYYCAADDYWRLYTWKFDYWGQGTQVTVSS
- polyreactivity (PSR sort gate): high polyreactivity
